Test results from publication PMC10397247.
Where two headings read alike, the source gives them in different places. One block for each binder: values may come before it.

Key:
[1] = biological target: T1, 4H754-bN; experiment: two-hybrid library CCNG1;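 further: natural log of median RNA to DNA barcode read ratio; higher means stronger binding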
T1 chain: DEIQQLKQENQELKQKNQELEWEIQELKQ

[2] = biological target: T2, 4H908-bN; experiment: two-hybrid library CCNG1;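 further: natural log of median RNA to DNA barcode read ratio; higher means stronger binding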
T2 chain: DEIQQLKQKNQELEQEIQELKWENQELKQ

[3] = biological target: T3, 4H797-bN; experiment: two-hybrid library CCNG1;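 further: natural log of median RNA to DNA barcode read ratio; higher means stronger binding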
T3 chain: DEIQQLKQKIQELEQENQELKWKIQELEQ

[4] = biological target: T4, 4H883-bN; experiment: two-hybrid library CCNG1;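 further: natural log of median RNA to DNA barcode read ratio; higher means stronger binding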
T4 chain: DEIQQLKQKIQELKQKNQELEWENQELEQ

[5] = biological target: T5, 4H918-bN; experiment: two-hybrid library CCNG1
T5 chain: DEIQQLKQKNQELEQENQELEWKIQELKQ

[6] = biological target: T6, 4H717-bN; experiment: two-hybrid library CCNG1
T6 chain: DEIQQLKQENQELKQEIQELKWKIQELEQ

[7] = biological target: T7, 4H687-bN; experiment: two-hybrid library CCNG1
T7 chain: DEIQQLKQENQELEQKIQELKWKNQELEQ

[8] = biological target: T8, 4H953-bN; experiment: two-hybrid library CCNG1
T8 chain: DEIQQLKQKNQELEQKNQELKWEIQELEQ

[9] = biological target: T9, 4H72-bN; experiment: two-hybrid library CCNG1
T9 chain: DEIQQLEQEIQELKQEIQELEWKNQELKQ

[10] = biological target: T10, 4H967-bN; experiment: two-hybrid library CCNG1
T10 chain: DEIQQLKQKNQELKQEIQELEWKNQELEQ

[11] = biological target: T11, 4H568-bN; experiment: two-hybrid library CCNG1
T11 chain: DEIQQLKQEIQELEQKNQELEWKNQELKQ

[12] = biological target: T12, 4H607-bN; experiment: two-hybrid library CCNG1
T12 chain: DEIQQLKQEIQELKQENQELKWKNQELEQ

[13] = biological target: T13, 4H3588-AA; experiment: two-hybrid library CCmax; details: mean of both orientations
T13 chain: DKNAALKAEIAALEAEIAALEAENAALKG

[14] = biological target: T14, 4H3606-AA; experiment: two-hybrid library CCmax; details: mean of both orientations
T14 chain: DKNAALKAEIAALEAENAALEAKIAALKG

[15] = biological target: T15, 4H3413-AA; experiment: two-hybrid library CCmax; details: mean of both orientations
T15 chain: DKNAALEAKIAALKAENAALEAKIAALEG

[16] = biological target: T16, 4H384-AA; experiment: two-hybrid library CCmax; details: mean of both orientations
T16 chain: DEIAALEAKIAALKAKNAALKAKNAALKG

[17] = biological target: T17, 4H3631-AA; experiment: two-hybrid library CCmax; details: mean of both orientations
T17 chain: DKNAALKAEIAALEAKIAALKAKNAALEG

[18] = biological target: T18, 4H3378-AA; experiment: two-hybrid library CCmax
T18 chain: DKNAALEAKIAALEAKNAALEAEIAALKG

[19] = biological target: T19, 4H3697-AA; experiment: two-hybrid library CCmax; details: mean of both orientations
T19 chain: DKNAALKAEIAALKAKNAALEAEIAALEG

[20] = biological target: T20, 4H32-AA; experiment: two-hybrid library CCmax
T20 chain: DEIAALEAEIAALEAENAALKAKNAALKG

[21] = biological target: T21, 4H697-AA; experiment: two-hybrid library CCmax; details: mean of both orientations
T21 chain: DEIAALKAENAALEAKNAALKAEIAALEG

[22] = biological target: T22, 4H3865-AA; experiment: two-hybrid library CCmax; details: mean of both orientations
T22 chain: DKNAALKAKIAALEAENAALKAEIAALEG

[23] = biological target: T23, 4H982-AA; experiment: two-hybrid library CCmax; details: mean of both orientations
T23 chain: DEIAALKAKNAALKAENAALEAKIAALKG

[24] = biological target: T24, 4H3718-AA; experiment: two-hybrid library CCmax; details: mean of both orientations
T24 chain: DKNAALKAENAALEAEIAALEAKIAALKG

[25] = biological target: T25, 4H340-AA; experiment: two-hybrid library CCmax; details: mean of both orientations
T25 chain: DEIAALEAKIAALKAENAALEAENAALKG

[26] = biological target: T26, 4H55-AA; experiment: two-hybrid library CCmax
T26 chain: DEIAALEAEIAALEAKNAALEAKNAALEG

[27] = biological target: T27, 4H662-AA; experiment: two-hybrid library CCmax; details: mean of both orientations
T27 chain: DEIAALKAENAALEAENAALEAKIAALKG

[28] = biological target: T28, 4H481-AA; experiment: two-hybrid library CCmax
T28 chain: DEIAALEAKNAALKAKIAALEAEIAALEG

[29] = biological target: T29, APC7099-AA; experiment: two-hybrid library CCmax
T29 chain: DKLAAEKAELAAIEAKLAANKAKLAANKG

[30] = biological target: T30, APC9096-AA; experiment: two-hybrid library CCmax; details: mean of both orientations
T30 chain: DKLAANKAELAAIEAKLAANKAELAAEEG

[31] = biological target: T31, APC8910-AA; experiment: two-hybrid library CCmax; details: mean of both orientations
T31 chain: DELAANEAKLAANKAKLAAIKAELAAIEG

[32] = biological target: T32, APC8191-AA; experiment: two-hybrid library CCmax; details: mean of both orientations
T32 chain: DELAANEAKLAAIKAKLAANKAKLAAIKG

[33] = biological target: T33, APC9319-AA; experiment: two-hybrid library CCmax; details: mean of both orientations
T33 chain: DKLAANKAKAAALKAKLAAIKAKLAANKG

[34] = biological target: T34, 4H446-AA; experiment: two-hybrid library CCmax; details: mean of both orientations
T34 chain: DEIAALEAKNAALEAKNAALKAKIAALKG

[35] = biological target: T35, 4H3629-AA; experiment: two-hybrid library CCmax; details: mean of both orientations
T35 chain: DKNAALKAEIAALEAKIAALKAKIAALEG

[36] = biological target: T36, 4H483-AA; experiment: two-hybrid library CCmax; details: mean of both orientations
T36 chain: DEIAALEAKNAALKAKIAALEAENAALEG

[37] = biological target: T37, 4H63-AA; experiment: two-hybrid library CCmax; details: mean of both orientations
T37 chain: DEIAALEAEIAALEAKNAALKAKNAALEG

[38] = biological target: T38, 4H464-AA; experiment: two-hybrid library CCmax; details: mean of both orientations
T38 chain: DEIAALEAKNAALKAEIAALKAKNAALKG

[39] = biological target: T39, 4H3969-AA; experiment: two-hybrid library CCmax; details: mean of both orientations
T39 chain: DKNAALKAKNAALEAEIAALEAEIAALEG

[40] = biological target: T40, 4H380-AA; experiment: two-hybrid library CCmax; details: mean of both orientations
T40 chain: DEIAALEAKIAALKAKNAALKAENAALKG

[41] = biological target: T41, 4H3595-AA; experiment: two-hybrid library CCmax
T41 chain: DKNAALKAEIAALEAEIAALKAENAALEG

[42] = biological target: T42, 4H3939-AA; experiment: two-hybrid library CCmax; details: mean of both orientations
T42 chain: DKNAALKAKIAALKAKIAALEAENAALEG

[43] = biological target: T43, 4H3782-AA; experiment: two-hybrid library CCmax; details: mean of both orientations
T43 chain: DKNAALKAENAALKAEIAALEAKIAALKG

Binder: DEIQQLKQEIQELEQKNQELEWKNQELKQ [4H568-bN]
interaction score [1]: 0.0731
interaction score [11]: 0.761
interaction score [2]: 1.08
interaction score [3]: 0
interaction score [4]: 1.1
interaction score [5]: -0.124
interaction score [6]: -0.157
interaction score [7]: 0.312
interaction score [8]: -1.93
interaction score [9]: -0.806
interaction score [10]: -0.452
interaction score [12]: -0.164

Binder: DKLAAEKAELAAIEAKLAANKAKLAANKG [APC7099-AA]
interaction score [29]: -1.86
interaction score [30]: -1.55
interaction score [31]: -2.07
interaction score [32]: -1.62
interaction score [33]: -2.06

Binder: DKNAALKAEIAALEAEIAALKAENAALEG [4H3595-AA]
interaction score [34]: -1.59
interaction score [35]: 0.754
interaction score [36]: -1.8
interaction score [37]: -0.914
interaction score [38]: 1.2
interaction score [39]: -1.4
interaction score [40]: 0.0185
interaction score [41]: -0.866
interaction score [42]: -0.576
interaction score [43]: -1.1

Further lines, results first:

interaction score [1]: 0.422
interaction score [2]: -0.555
interaction score [3]: 0.169
interaction score [4]: 0.227
interaction score [5]: -0.686
interaction score [6]: 0.114
interaction score [7]: -0.549
interaction score [8]: -1.1
interaction score [9]: -1.56
interaction score [10]: 0.425
Binder: DEIQQLKQENQELEQKIQELKWKNQELEQ [4H687-bN]

interaction score [13]: -0.686
interaction score [14]: -0.292
interaction score [15]: 0.814
interaction score [16]: 1.2
interaction score [17]: -0.675
interaction score ([18]; mean of both orientations): -1.84
interaction score [19]: -0.509
interaction score [20]: 0.0438
interaction score [21]: -1.89
interaction score [22]: 1.4
interaction score [23]: -0.329
interaction score [24]: -0.924
interaction score [25]: 1.89
Binder: DEIAALEAEIAALEAENAALKAKNAALKG [4H32-AA]

interaction score [26]: -1.31
interaction score [27]: 1.83
interaction score [28]: 0.282
Binder: DEIAALEAKNAALKAKIAALEAEIAALEG [4H481-AA]

interaction score [1]: -0.997
interaction score [2]: -0.377
interaction score [3]: -1.95
interaction score [4]: -0.0445
interaction score [5]: -1.09
interaction score [6]: 1.4
interaction score [8]: -1.57
interaction score [9]: -1.73
interaction score [10]: -0.445
Binder: DEIQQLKQENQELKQEIQELKWKIQELEQ [4H717-bN]

interaction score [13]: -1.31
interaction score [14]: -0.302
interaction score [15]: -1.24
interaction score [16]: -1.9
interaction score [17]: -1.65
interaction score [18]: 1.2
interaction score [19]: -1.32
interaction score [21]: -2.13
interaction score [22]: -0.877
interaction score [23]: -1.5
interaction score [24]: -1.79
interaction score [25]: -1.86
Binder: DKNAALEAKIAALEAKNAALEAEIAALKG [4H3378-AA]
